According to article PMC5503505 (Nature structural & molecular biology, 2017):

T1: Orc2 (S. cerevisiae, UniProt P32833 1-620)
T1 sequence: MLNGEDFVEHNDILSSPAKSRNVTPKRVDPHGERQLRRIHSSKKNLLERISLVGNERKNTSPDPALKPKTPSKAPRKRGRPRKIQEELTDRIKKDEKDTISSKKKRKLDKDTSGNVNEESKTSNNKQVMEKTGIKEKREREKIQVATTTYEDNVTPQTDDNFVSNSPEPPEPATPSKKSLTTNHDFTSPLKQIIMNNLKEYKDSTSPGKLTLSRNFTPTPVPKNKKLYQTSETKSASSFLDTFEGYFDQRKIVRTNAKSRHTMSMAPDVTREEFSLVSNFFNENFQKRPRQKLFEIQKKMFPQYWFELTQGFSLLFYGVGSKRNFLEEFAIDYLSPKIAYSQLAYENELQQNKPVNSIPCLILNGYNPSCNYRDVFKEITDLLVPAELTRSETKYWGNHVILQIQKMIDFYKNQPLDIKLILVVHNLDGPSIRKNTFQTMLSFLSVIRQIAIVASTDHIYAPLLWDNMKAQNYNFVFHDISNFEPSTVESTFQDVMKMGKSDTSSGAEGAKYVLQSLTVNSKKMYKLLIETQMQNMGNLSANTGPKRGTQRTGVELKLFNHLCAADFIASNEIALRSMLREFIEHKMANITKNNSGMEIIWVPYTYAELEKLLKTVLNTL

T2: Cdt1 (S. cerevisiae, UniProt P47112 1-604)
T2 sequence: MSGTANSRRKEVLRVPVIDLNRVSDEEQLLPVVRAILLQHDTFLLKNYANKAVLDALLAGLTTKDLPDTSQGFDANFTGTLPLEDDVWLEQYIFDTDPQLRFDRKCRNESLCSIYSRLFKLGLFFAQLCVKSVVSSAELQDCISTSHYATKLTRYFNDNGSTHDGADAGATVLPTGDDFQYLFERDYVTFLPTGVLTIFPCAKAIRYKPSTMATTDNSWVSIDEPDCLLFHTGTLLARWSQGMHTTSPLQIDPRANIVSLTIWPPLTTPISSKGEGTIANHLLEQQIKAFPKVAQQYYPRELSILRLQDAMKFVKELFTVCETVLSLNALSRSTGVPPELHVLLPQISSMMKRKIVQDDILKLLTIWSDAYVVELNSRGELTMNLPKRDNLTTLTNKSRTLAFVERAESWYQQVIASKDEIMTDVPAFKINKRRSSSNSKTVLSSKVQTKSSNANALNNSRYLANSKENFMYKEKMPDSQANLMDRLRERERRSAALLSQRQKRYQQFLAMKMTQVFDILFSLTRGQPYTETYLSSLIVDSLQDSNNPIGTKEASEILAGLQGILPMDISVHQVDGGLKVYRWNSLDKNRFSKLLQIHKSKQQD

T3: Mcm7 (S. cerevisiae, UniProt P38132 1-845)
T3 sequence: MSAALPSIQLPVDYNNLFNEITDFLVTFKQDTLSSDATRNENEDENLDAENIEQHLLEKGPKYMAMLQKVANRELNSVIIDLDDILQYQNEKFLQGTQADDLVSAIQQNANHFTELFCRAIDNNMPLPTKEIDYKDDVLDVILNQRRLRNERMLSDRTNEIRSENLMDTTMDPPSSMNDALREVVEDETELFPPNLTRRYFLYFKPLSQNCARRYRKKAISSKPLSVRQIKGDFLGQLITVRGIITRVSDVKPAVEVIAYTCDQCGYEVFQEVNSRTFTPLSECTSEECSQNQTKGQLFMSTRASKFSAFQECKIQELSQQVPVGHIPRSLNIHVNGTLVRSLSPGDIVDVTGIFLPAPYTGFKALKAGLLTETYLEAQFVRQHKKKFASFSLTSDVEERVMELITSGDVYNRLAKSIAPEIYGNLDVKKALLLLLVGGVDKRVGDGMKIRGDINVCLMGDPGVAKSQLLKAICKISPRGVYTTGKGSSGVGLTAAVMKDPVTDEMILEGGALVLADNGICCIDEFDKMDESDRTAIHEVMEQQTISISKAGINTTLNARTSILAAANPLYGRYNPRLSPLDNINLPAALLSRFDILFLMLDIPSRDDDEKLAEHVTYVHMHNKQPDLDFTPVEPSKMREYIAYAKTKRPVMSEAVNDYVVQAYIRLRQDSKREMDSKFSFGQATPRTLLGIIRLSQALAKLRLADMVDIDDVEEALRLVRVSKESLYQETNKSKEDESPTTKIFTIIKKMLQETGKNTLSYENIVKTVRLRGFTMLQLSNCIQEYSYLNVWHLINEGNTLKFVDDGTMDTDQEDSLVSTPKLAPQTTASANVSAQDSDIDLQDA

T4: Orc1 (S. cerevisiae, UniProt P54784 1-914)
T4 sequence: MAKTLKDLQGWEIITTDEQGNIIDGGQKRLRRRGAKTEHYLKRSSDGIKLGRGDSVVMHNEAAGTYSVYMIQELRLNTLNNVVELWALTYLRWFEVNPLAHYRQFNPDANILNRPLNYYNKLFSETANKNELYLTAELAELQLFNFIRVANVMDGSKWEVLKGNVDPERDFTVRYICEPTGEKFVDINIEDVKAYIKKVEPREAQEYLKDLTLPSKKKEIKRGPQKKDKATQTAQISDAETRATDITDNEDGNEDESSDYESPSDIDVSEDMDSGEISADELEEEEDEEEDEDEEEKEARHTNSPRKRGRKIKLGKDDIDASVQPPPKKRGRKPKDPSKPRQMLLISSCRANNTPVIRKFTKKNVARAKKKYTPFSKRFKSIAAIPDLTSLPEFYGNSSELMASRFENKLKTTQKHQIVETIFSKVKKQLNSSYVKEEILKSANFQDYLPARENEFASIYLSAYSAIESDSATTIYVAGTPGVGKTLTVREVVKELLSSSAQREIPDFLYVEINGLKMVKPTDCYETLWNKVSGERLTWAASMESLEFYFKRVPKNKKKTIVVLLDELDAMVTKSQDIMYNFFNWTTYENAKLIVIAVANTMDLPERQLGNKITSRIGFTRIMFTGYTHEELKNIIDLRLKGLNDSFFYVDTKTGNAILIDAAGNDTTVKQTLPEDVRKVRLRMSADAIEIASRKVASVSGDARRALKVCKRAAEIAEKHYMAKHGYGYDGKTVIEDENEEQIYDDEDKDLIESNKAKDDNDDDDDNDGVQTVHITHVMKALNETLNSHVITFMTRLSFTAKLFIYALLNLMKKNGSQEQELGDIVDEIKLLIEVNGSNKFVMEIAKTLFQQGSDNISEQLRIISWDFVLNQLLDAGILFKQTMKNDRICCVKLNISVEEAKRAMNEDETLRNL

B1: Orc6 (natural protein)
chain: MSMQQVQHCVAEVLRLDPQEKPDWSSGYLKKLTNATSILYNTSLNKVMLKQDEEVARCHICAYIASQKMNEKHMPDLCYYIDSIPLEPKKAKHLMNLFRQSLSNSSPMKQFAWTPSPKKNKRSPVKNGGRFTSSDPKELRNQLFGTPTKVRKSQNNDSFVIPELPPMQTNESPSITRRKLAFEEDEDEDEEEPGNDGLSLKSHSNKSITGTRNVDSDEYENHESDPTSEEEPLGVQESRSGRTKQNKAVGKPQSELKTAKALRKRGRIPNSLLVKKYCKMTTEEIIRLCNDFELPREVAYKIVDEYNINASRLVCPWQLVCGLVLNCTFIVFNERRRKDPRIDHFIVSKMCSLMLTSKVDDVIECVKLVKELIIGEKWFRDLQIRYDDFDGIRYDEIIFRKLGSMLQTTNILVTDDQYNIWKKRIEMDLALTEPL
B2: Cdc6 (natural protein)
chain: MSAIPITPTKRIRRNLFDDAPATPPRPLKRKKLQFTDVTPESSPEKLQFGSQSIFLRTKALLQKSSELVNLNSSDGALPARTAEYEQVMNFLAKAISEHRSDSLYITGPPGTGKTAQLDMIIRQKFQSLPLSLSTPRSKDVLRHTNPNLQNLSWFELPDGRLESVAVTSINCISLGEPSSIFQKIFDSFQDLNGPTLQIKNMQHLQKFLEPYHKKTTFVVVLDEMDRLLHANTSETQSVRTILELFLLAKLPTVSFVLIGMANSLDMKDRFLSRLNLDRGLLPQTIVFQPYTAEQMYEIVIQKMSSLPTIIFQPMAIKFAAKKCAGNTGDLRKLFDVLRGSIEIYELEKRFLLSPTRGSLNSAQVPLTPTTSPVKKSYPEPQGKIGLNYIAKVFSKFVNNNSTRTRIAKLNIQQKLILCTIIQSLKLNSDATIDESFDHYIKAITKTDTLAPLQRNEFLEICTILETCGLVSIKKTKCKGKTKRFVDKIDVDLDMREFYDEMTKISILKPFLH

What was measured:
Orc2 = biological target: T1, Orc2; experiment: cross-linking
Cdt1 = biological target: T2, Cdt1; experiment: cross-linking
Mcm7 = biological target: T3, Mcm7; experiment: cryo-EM structure
Orc1 = biological target: T4, Orc1; experiment: cryo-EM structure

Row | Binder | binding result (Orc2) | binding result (Cdt1) | binding result (Mcm7) | binding result (Orc1)
1 | B1 | binds | binds |  | 
2 | B2 |  |  | binds | binds
